In publication PMC5017680, “treA Codifies for a Trehalase with Involvement in Xanthomonas citri subsp. citri Pathogenicity” (PLoS ONE, 2016) one finds Km data, which are given here for one substance.

For the data set, the system named is OC[C@H]1O[C@H](O[C@H]2O[C@H](CO)[C@@H](O)[C@H](O)[C@H]2O)[C@H](O)[C@@H](O)[C@@H]1O. The experiment in a line: purified protein. Conditions: 25 °C, Glucose Liquiform kit solution, 0.03125-4 mM trehalose.

Turning to “Xcc TreA (recombinant Xcc trehalase) (Xanthomonas citri subsp. citri 306)”, the Michaelis constant (Km) (in general, the substrate concentration at which the rate is half of its maximum) was determined as 77 µM.
